Reference: US7056679 (ANTYRA, dated 2006)
No end group written: not given here.

T1: DGI-2 (UniProt Q15004 1-111, limits assumed)
T1 construct: Soluble recombinant DGI-2 made by in vitro translation (RTS, pIVEX2.3-MCS vector) and coated on plates for the ELISA; vector tag not described; also called KIAA0101; DGI-2 polypeptide
T1 sequence (looked up): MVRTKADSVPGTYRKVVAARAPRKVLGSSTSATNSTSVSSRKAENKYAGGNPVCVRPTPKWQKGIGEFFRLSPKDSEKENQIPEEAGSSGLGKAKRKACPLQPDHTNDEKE


What follows are binders tested against T1, DGI-2 (assay: phage ELISA, coated DGI-2).
Description: For analysis of individual target binders, colonies were picked and phage prepared as described above using helper phage, M13KO7. Ninety-six-well microtiter plates were coated with 500 ng/well of specific target protein, 500 ng/well lactate dehydrogenase (LDH) irrelevant or non-specific target, 500 ng/well of positive control antibody raised against ETAG, and negative control of non-fat milk powder-PBS 2% at 4° C. overnight. Plates were then blocked with 350 microliters/well PBS containing 2% non-fat milk for 1 hr at room temperature. One hundred microliters per well of phage from isolated clones were added and plates were incubated at room temperature for 2 hr after centrifuging samples for 20 minutes at 3500 rpm at 4° C. The phage solution was then removed, and the wells were washed three times with PBS at room temperature. Antibody raised against M13 conjugated to horseradish peroxidase (Pharmacia) was diluted 1:3000 in PBS-Tween and added to each well (100 µl/well). Incubation was for 1 hr at room temperature, followed by washing with PBS-(0.5%) Tween 3 times as described. Color was developed by addition of ABTS solution (100 µl/well; Boehringer, Indianapolis, Ind.). Plates were analyzed at 405 nm. A clone was considered "positive" if the $A405$ of the well was $\geq$2-fold over background.

Binder	binding result
LWRRWSEGQLLGDGELRGDG (on M13 phage, pIII fusion with E-tag) [DGI-2-20R-3-B52]	binds
SVTISTSCRTGCPAGYLRRD (not fully specified; cysteine pairing not given here, on M13 phage, pIII fusion with E-tag) [DGI-2-20F-PP-D2]	binds
VQSGRDLGGLLRGGTGTEASP (on M13 phage, pIII fusion with E-tag) [DGI-2-20F-PP-D3]	binds
SVSGGGVFGTGGRVRHQVSG (on M13 phage, pIII fusion with E-tag) [DGI-2-20F-PP-C5]	binds
EGQRVVFLFGALVAGLCWRDR (on M13 phage, pIII fusion with E-tag) [DGI-2-20F-PP-F3]	binds
SLLCVVCRPVSGGRALGGVP (not fully specified; cysteine pairing not given here, on M13 phage, pIII fusion with E-tag) [DGI-2-20F-PP-B42]	binds
CYLSRLFRSGQGIGQFGHVE (on M13 phage, pIII fusion with E-tag) [DGI-2-20F-PP-A82]	binds
GGDLGEQGVQLCPDVVRGGSL (on M13 phage, pIII fusion with E-tag) [DGI-2-20F-PP-A7]	binds
GASRVVDVGWRFWGKLWQRS (on M13 phage, pIII fusion with E-tag) [DGI-2-20F-PP-G5]	binds
LVIGQRSFLSACSLFDGFCV (not fully specified; cysteine pairing not given here, on M13 phage, pIII fusion with E-tag) [DGI-2-20R-4-H814]	binds
VTGTRFRGFAVACVRMGTWH (on M13 phage, pIII fusion with E-tag) [DGI-2-20F-PP-F2]	binds
MGADTCMGGKMPFDQMFGAV (on M13 phage, pIII fusion with E-tag) [DGI-2-20F-PP-E10]	binds
RKGWGVFCIPGLRFCDWSDP (not fully specified; cysteine pairing not given here, on M13 phage, pIII fusion with E-tag) [DGI-2-20R-3-B4]	binds
RISVGQCGTSRCGGGRRGGG (not fully specified; cysteine pairing not given here, on M13 phage, pIII fusion with E-tag) [DGI-2-20F-PP-D1]	binds
GRWDGWEVCGIWGADDCASG (not fully specified; cysteine pairing not given here, on M13 phage, pIII fusion with E-tag) [DGI-2-20R-4-H1]	binds
DRHRAFVAEGLDGFRHSTGV (on M13 phage, pIII fusion with E-tag) [DGI-2-20F-PP-D4]	binds
RSYPRLCKQKGGVIGRMLPG (on M13 phage, pIII fusion with E-tag) [DGI-2-20F-PP-B2]	binds
LFRFSGTGMASLPCVGWHLV (on M13 phage, pIII fusion with E-tag) [DGI-2-20F-PP-B6]	binds
SAFGCPLPRALGGGGARFYA (on M13 phage, pIII fusion with E-tag) [DGI-2-20F-PP-E11]	binds
VGQSSGDARPLANLFVFPFV (on M13 phage, pIII fusion with E-tag) [DGI-2-20F-PP-F12]	binds
VGHLLSRCAHHSPGMGASPYG (on M13 phage, pIII fusion with E-tag) [DGI-2-20F-PP-B11]	binds
GWSDFVATGSWSGQVSAALN (on M13 phage, pIII fusion with E-tag) [DGI-2-20R-4-F120]	binds

Binder	binding result
LLLPVRWRDAQPRSLLMEWI (on M13 phage, pIII fusion with E-tag) [DGI-2-20F-PP-F8]	binds
WWREWVDGSLRGGGGTVLKD (on M13 phage, pIII fusion with E-tag) [DGI-2-20R-3-A122]	binds
TPVAISIPAGVCSTSVCGRD (not fully specified; cysteine pairing not given here, on M13 phage, pIII fusion with E-tag) [DGI-2-20F-PP-C11]	binds
RRGVCEIFTGWCVGQTNERP (not fully specified (bridges); cysteine pairing not given here, on M13 phage, pIII fusion with E-tag) [DGI-2-20R-4-H626]	binds
SRELGKWGRLWQDWSSGNFS (on M13 phage, pIII fusion with E-tag) [DGI-2-20R-3-C11]	binds
GHGAGDWAAELFVCPVAFLTGFAWR (on M13 phage, pIII fusion with E-tag) [DGI-2-20R-4-H2]	binds
VWAAWVEGSLLSPRQEPVRD (on M13 phage, pIII fusion with E-tag) [DGI-2-20R-4-G4]	binds
CGGWGAMWEAWVQGLNGAGC (not fully specified; cysteine pairing not given here, on M13 phage, pIII fusion with E-tag) [DGI-2-20R-3-D4]	binds
VVGYAQGDGLEGGLGSSRDGS (on M13 phage, pIII fusion with E-tag) [DGI-2-20F-PP-D8]	binds
GGSLPVKSGQLVTCCTSKGG (on M13 phage, pIII fusion with E-tag) [DGI-2-20F-PP-F5]	binds
VVHTRAWGSWAYGFVLRNRG (on M13 phage, pIII fusion with E-tag) [DGI-2-20F-PP-F10]	binds
VWRDWVNGTVGLRNREKPGV (on M13 phage, pIII fusion with E-tag) [DGI-2-20R-3-A5]	binds
PVYRVAMCRISVGCSAGAWF (not fully specified; cysteine pairing not given here, on M13 phage, pIII fusion with E-tag) [DGI-2-20F-PP-C12]	binds
LSLEGGWMWDTKGGDGGSAQ (on M13 phage, pIII fusion with E-tag) [DGI-2-20R-4-F93]	binds
RGSLLLTLPRLSGAVGTAYG (on M13 phage, pIII fusion with E-tag) [DGI-2-20F-PP-B3]	binds
VCSGGKGTWLEIPDRVRSST (on M13 phage, pIII fusion with E-tag) [DGI-2-20F-PP-A22]	binds
RQRSGGRWVVDRVTRVASTSP (on M13 phage, pIII fusion with E-tag) [DGI-2-20F-PP-B12]	binds
VSGVPDGSMRAAQLASGYWC (on M13 phage, pIII fusion with E-tag) [DGI-2-20F-PP-G2]	binds
DGRGWGAMWMRWAEGLGADI (on M13 phage, pIII fusion with E-tag) [DGI-2-20R-4-G114]	binds
RRFVRCSVPVALRSAVPVSV (on M13 phage, pIII fusion with E-tag) [DGI-2-20F-PP-A10]	binds
CCAWNGVGVGGLGWRVVVGP (on M13 phage, pIII fusion with E-tag) [DGI-2-20F-PP-H4]	binds
